Measured values: IntAct's records for PubMed 18832153

B1: Structural maintenance of chromosomes protein 1A (Homo sapiens), Q14683 (parent)
chain: MGFLKLIEIENFKSYKGRQIIGPFQRFTAIIGPNGSGKSNLMDAISFVLGEKTSNLRVKTLRDLIHGAPVGKPAANRAFVSMVYSEEGAEDRTFARVIVGGSSEYKINNKVVQLHEYSEELEKLGILIKARNFLVFQGAVESIAMKNPKERTALFEEISRSGELAQEYDKRKKEMVKAEEDTQFNYHRKKNIAAERKEAKQEKEEADRYQRLKDEVVRAQVQLQLFKLYHNEVEIEKLNKELASKNKEIEKDKKRMDKVEDELKEKKKELGKMMREQQQIEKEIKEKDSELNQKRPQYIKAKENTSHKIKKLEAAKKSLQNAQKHYKKRKGDMDELEKEMLSVEKARQEFEERMEEESQSQGRDLTLEENQVKKYHRLKEEASKRAATLAQELEKFNRDQKADQDRLDLEERKKVETEAKIKQKLREIEENQKRIEKLEEYITTSKQSLEEQKKLEGELTEEVEMAKRRIDEINKELNQVMEQLGDARIDRQESSRQQRKAEIMESIKRLYPGSVYGRLIDLCQPTQKKYQIAVTKVLGKNMDAIIVDSEKTGRDCIQYIKEQRGEPETFLPLDYLEVKPTDEKLRELKGAKLVIDVIRYEPPHIKKALQYACGNALVCDNVEDARRIAFGGHQRHKTVALDGTLFQKSGVISGGASDLKAKARRWDEKAVDKLKEKKERLTEELKEQMKAKRKEAELRQVQSQAHGLQMRLKYSQSDLEQTKTRHLALNLQEKSKLESELANFGPRINDIKRIIQSREREMKDLKEKMNQVEDEVFEEFCREIGVRNIREFEEEKVKRQNEIAKKRLEFENQKTRLGIQLDFEKNQLKEDQDKVHMWEQTVKKDENEIEKLKKEEQRHMKIIDETMAQLQDLKNQHLAKKSEVNDKNHEMEEIRKKLGGANKEMTHLQKEVTAIETKLEQKRSDRHNLLQACKMQDIKLPLSKGTMDDISQEEGSSQGEDSVSGSQRISSIYAREALIEIDYGDLCEDLKDAQAEEEIKQEMNTLQQKLNEQQSVLQRIAAPNMKAMEKLESVRDKFQETSDEFEAARKRAKKAKQAFEQIKKERFDRFNACFESVATNIDEIYKALSRNSSAQAFLGPENPEEPYLDGINYNCVAPGKRFRPMDNLSGGEKTVAALALLFAIHSYKPAPFFVLDEIDAALDNTNIGKVANYIKEQSTCNFQAIVISLKEEFYTKAESLIGVYPEQGDCVISKVLTFDLTKYPDANPNPNEQ
partner: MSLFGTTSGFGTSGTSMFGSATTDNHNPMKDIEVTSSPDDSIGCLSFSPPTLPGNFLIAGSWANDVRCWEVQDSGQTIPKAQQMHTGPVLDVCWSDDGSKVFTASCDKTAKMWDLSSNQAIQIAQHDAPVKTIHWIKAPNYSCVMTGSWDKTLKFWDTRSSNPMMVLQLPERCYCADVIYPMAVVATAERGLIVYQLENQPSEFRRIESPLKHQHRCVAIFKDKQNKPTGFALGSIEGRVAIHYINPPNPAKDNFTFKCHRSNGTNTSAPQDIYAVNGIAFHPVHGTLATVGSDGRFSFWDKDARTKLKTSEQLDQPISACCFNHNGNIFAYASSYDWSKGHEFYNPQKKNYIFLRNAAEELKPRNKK

Variants of: B1
Details: with rae1l_human RAE1, P78406

Row | Variant | effect of a mutation on the interaction
1 | S957A | decreasing interaction
2 | S966A | decreasing interaction
